Experimental data taken from publication PMC10042821 (2023).

B1: eukaryotic translation factor 5A-1 (eIF5A-1), residues 15-151 (domain or fragment)
chain: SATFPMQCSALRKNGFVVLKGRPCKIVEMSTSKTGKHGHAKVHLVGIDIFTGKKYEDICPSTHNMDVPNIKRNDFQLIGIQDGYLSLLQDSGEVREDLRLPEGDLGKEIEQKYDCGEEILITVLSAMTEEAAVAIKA
B2: deoxyhypusine synthase, wild type, His-tagged (enzyme)
chain: MEGSLEREAPAGALAAVLKHSSTLPPESTQVRGYDFNRGVNYRALLEAFGTTGFQATNFGRAVQQVNAMIEKKLEPLSQDEDQHADLTQSRRPLTSCTIFLGYTSNLISSGIRETIRYLVQHNMVDVLVTTAGGVEEDLIKCLAPTYLGEFSLRGKELRENGINRIGNLLVPNENYCKFEDWLMPILDQMVMEQNTEGVKWTPSKMIARLGKEINNPESVYYWAQKNHIPVFSPALTDGSLGDMIFFHSYKNPGLVLDIVEDLRLINTQAIFAKCTGMIILGGGVVKHHIANANLMRNGADYAVYINTAQEFDGSDSGARPDEAVSWGKIRVDAQPVKVYADASLVFPLLVAETFAQKMDAFMHEKNED

Assays:
[1] = molecular target: deoxyhypusine synthase N173S, patient-derived variant, His-tagged (human, UniProt P49366 1-369, N173S); assay: MST; + NAD + SPD
[2] = molecular target: T1, deoxyhypusine synthase delY305_I306, patient-derived variant, His-tagged (human, UniProt P49366 1-369, delY305_I306); assay: MST; + NAD + SPD
[3] = molecular target: T1, deoxyhypusine synthase delY305_I306, …; assay: MST; + NAD
[4] = molecular target: B1; assay: MST; + NAD + SPD
[5] = molecular target: B1; assay: MST; + NAD

| Binder | Kd [1] | Kd [2] | Kd [3] | Kd [4] | Kd [5] |
| --- | --- | --- | --- | --- | --- |
| B1 | 426 nM | 1580 nM | 368 nM | – | – |
| B2 | – | – | – | 81.7 nM | 27 nM |
